Experimental findings from paper PMC9938795 are described below.

The assay has as its target PRKAR2A, regulatory subunit of protein kinase A (NanoBiT positive control) (UniProt P13861). Nature of the assay: split reporter.

Chain of PRKAR2A, regulatory subunit of protein kinase A (NanoBiT positive control) (P13861 whole entry): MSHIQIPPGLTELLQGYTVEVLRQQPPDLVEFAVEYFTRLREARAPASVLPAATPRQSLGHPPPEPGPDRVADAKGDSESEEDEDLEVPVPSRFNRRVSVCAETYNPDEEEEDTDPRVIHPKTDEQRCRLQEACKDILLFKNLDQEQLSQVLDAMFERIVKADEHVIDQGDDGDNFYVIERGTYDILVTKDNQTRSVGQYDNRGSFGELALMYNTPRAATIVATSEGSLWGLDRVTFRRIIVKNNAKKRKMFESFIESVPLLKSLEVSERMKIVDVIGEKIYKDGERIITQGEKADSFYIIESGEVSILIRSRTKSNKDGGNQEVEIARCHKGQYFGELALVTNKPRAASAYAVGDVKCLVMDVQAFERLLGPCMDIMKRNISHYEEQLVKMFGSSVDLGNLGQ

Substance “PRKACA, catalytic subunit of protein kinase A (NanoBiT positive control) (from UniProt P17612 1-351) (natural protein)” displayed a nanoluciferase activity (RLU) of 800000 RLU.
